The record followed here is the DeepSol protein solubility set.

This data set is described as follows: soluble on expression in E. coli; label from the status in PepcDB or PDB records.
As to “MSLSGLHQADLEMVAAAYAKSNATIVTYGMGITQHNEGTANVRLICDLLMLRGNLGKPGAGICPLRGHSNVQGNRTVGITEKPSPAFLDKLQQTFGFTPPAHHGHDAVQAMQAMIAGSAKALLCLGGNFAVALPDPGQCFPAMGKLDLSVHIATKLNRSHLLVARETFLFPCLGRTELDMQDGLRQAITVEDSMSMVHASAGKLAPASEFLLSEPAIVAGMARATLPGSRVPWLELVADYDKIRDLIEQTVPGFDDYNARIRVPGGFRMPLAAAERQWLTPSGKAEFFVFPGLHEDKEVDGADVLRLITLRSHDQYNTTIYALDDRYRGVFGRRDVLFISPADLAARGLAHGDLVDIETVIGGRRLRYEKITAIEYKIANGTVGAYYPEANRLVPLDYLDVDSGTPSYKSVPVRVLRSSPAEGHHHHHH”, the “soluble on expression in E. coli” value is reported as “not soluble”.
As for “MENFLHKWFASEYDLYEEDLEKASALVNSHNIRTVVNVMFQHPIFTVNMMAALTSLPEATVRRYLNRFEEQQLIFSDGRMRSKTYYYYNLLDQLR”, the entry is “not soluble”; as for “MGSSHHHHHHSSGRENLYFQGMVKNYVLDTNVLIHDPDSIFSFEDNNVIIPLPVLEELDKLKREHGSVGKNAREVIRHLDELRKKGNLRKGIPLENGGILRVMVLEREVENVPRFLHERYVDNIILAYVIELMNREKIPTILVSKDINLRVKADSLGIPAQDYLTDRSELETMPKGYVEIDDEELKKQLKVKVTVEKKLDLLDNFYIDLGGVYGKYRKGKVLRVEPFETMGISPRNREQIFSMDALLDDEIPLVFLVGIAGTGKTLLALACGLYKVLVEKRYKKLIVTRPTVPMGRDIGYLPGELEKKMKPWLQPIMDNLELISSLSGLKIKELEKQEILEVEAISFIRGRSIPKQFIIIDEAQNLTPHEVKTILTRVGEDTKIVLVGDPYQIDTPYLDKDTNGLVYAALKLLESDLSAVIKLEKGERSRLATIAAELL”, “soluble”; as for “GMTFRDTSAIASWHAHVYFDASSRDAAWTLREQIEAHWSGKLQLGRFHERPVGPHPMWSYQLAFTQEQFADLVGWLTLNHGALDIFLHPNTGDALRDHRDAAVWIGHSHELVLSALN”, “soluble”.
As for “MEPPSSRPEEPPSWEDLYKINLMPSELFLKFRKELQGLRVGVNLELYNEPTNDYHAKLVLKPLCPERKWKFIYEPLHQEVRVLSKKIPVTRFLNLQVGVGHNFQMNAIGWKWKLTSCLGGDGVSRIRNKTTLGLSPGIDFRFGWRADFVLPEVTGALGTEEPLFNMSSGRLEASLDRVEAIVTHSDYL”, the entry is “soluble”.
As for “MKILVIGGPTAIGKSDLACCVAQKLNGEIISADSMAVYKFMDIGTAKPLECMKKVPHHLIDVVEPGGYFDAKIFEEMAKEKIEEIKRKGKVPIVVGGTYLYIQALLYGIDETPKPDWNLRNKLYEIARKKGNDYLYEKLKAIDPKYAKKIHKNDLRRIVRALEVFINTGKPFSSFHSWNKPKMDFVGIYLKRSPESLYKRIENRVYDMVKDGLLEEVKKLLEMGYENFLTSGQAIDYKEFVPCAKGEKSLEECIKEAIKNTKKQAKRQIRWFRKQGWHEIDLDKLSIEEACEEVVRIYKDANKTKLEHHHHHH”, the entry is “not soluble”; as for “MKIMGFYSQVILPRLLDWSLSDPTLATYRQELLTDVTGEVLEIGFGTGLNLAYYPSHIHKITTVDVNPGMNTIAQKRIDDSGIKVQQLLLSGENLPMADNTFDSVVSTWTLCSIANVEQALQEVYRVLKPGGKFFFLEHGLSNKPNVQVWQNRLTPIQKVLADGCHLNRNIQQLVEQSFDHVELKRFTPENFPDLMAHFYKGCATKKSILEHHHHHH”, “soluble”; as for “MGSDKIHHHHHHMAQHEMSPRANSETDTVVLDAPGKSVYESLCEKINLTPVKATRPMESFQSADALSESSLDERVAQAMTVFLKMIQDSSQQVDRLDKSLLDFHIAHLDQQISQQLDAIMHHETFQQIESAWRGLKFLVDRTDFRKNVKIEVLDVSKDALRQDFEDTPELIQSGLYLHTYIQEYDTPGGEPVGSIISNYEFDRSQQDIVLLRNISKVSAAAHMPFIGSVSPKFFGKDSMDEVASIRDIGNYFDRAEYLKWKSFRDSDDARYIGLTLPRFLARLPYGPDTVPVRAFNYTEAVKGPDHSRYLWGNASFAFAVNMVQSFIKNGWCVQIRGPQAGGLVEDLPIHLYDLGTGNQAKIPTEVLIPETREFEFANLGFIPLSYYKNHDFACFFSAHSAQKPALYDTKEATANSRVNARLPYIFLLSRIAHYLKLIQRENIGTTKDRRVLELELNTWIKTLVTEMTDPGDELQASHPLREAKVIVEDIEDNPGFFRVKLFIVPHFQIEGMDINLSLVSQMPKAKTDRLLSASTAI”, “not soluble”.
Regarding “NAIMDLQTRNTRGLSTLVVRDIGELMMAGDMAVIERYVADVRGKGAVLDLRIYDAAGRPAGKKQDAPDGEVQAALTSGATAEKRHKVDGRHVLSFIVPLANEVRCQSCHEQGARFNGAMLLTTSLEEGYAGARN”, the “soluble on expression in E. coli” value is reported as “soluble”.
As for “CHEASAIGMKDTIGVGKGTVIFDDFEEADAIFVIGQNPGTNHPRMLEPLREAVKRGAQVICLNPLKERGLERFQNPQMPIEMLSNGSEPTNTAYLRPALGGDMAVFRGIAKFLLQWEREALQNGGKAVFDREFIKQHTIGIDEYLAEVDATSWEHIAEQSGLDLSEIEMVASMYRRAERVIMCWAMGLTQHRHSVPTIKEVANVQMLRGNVGKPGAGLSPVRGHSNVQGDRTMGIDEKPSDLLLDRIESRFNFD”, the “soluble on expression in E. coli” value was “not soluble”.
“DPQPDPLQPDVYLLVNARAAHTNGEESINMDAEDFEDRVHSLAMLVFDSNTGEKVAEHFSSSIGSGTSTYVFTVKLKPGQRD”: the “soluble on expression in E. coli” value is recorded as “not soluble”.
With “EHLLEELESELVRRVYSTHFPPQVSIDEGQAQLACAEFHAVTPEEGQDLLVLSGDHQAQNNQGHYGLTDTFLDIADEFGIQRVFALGGVPTGELIEEYDVLGATTTEDFKETLEESGVAFREDEPAGGIVGVSGLLLGLSKRRDVPASCLMGETSGYLVDPKSAQAVLEILQDVIGFEVDYSSLEDRADEMEEVVRKIQEMEQQNSPSPADEDLRYIG” the entry was “not soluble”.
Regarding “MEYGNLRRQAASLKKSLFDQGYLDEQFCQVEDLQDEANPNFAEEVVSLFFKDSTRVMLNFEQAIEKHPKDFARWDTHMQQLKGSCSSIGASRVKNECTSFRNFCGEENAEGCTRSFQKVKREHAVLRQKWESYFQLLRQAGPAGTATRPAGK”, the “soluble on expression in E. coli” value was “not soluble”.
On to “MKKFFMASLLGSAIALCTTAMAASTDLKALEDAARKEGTVNSVGMPDAWANWKGTWEDLASKYGLKHSDTDMSSAQELAKFEAEKDNASADIGDVGAAFGPIAVTKGVSQPYKPSTWDQVPEWAKDKDGHWALAYTGTIAFIINKDLVKEEERPKTWHDLEKGKYKVAIGDVGTAAQAANGVLAAAIAYKGDESNVAPGLQLFTKLAQQKRLSLANPTIQTLEKGEVEVGVVWDFNGLSYREQIDPKRFEVLIPSDGSVISGYTTVINKYAKHPNAAKLTREYIFSDAGQINLAKGHARPIRAEHLKLPADVQAKLLPNDQYAAAQPIKNAEAWEATSKKLPQMWQEQVIIEME”, for which the “soluble on expression in E. coli” value was “not soluble”.
On to “MMFLRQEDFATVVRSTPLVSLDFIVENSRGEFLLGKRTNRPAQGYWFVPGGRVQKDETLEAAFERLTMAELGLRLPITAGQFYGVWQHFYDDNFSGTDFTTHYVVLGFRFRVSEEELLLPDEQHDDYRWLTSDALLASDNVHANSRAYFLAEKRTGVPGL”, for which the “soluble on expression in E. coli” value is given as “soluble”.
As for “MSVLDISIIIANYNTEEFLRNCLNSIKSTVKNVKYEVIVTDNNSKDDSVTMIKNEFPWVKLIESKINGGFAYANNLAIKESSGKYIFLLNTDTVLLKDVIEKMVNYMDENKDVGLLGPKLLNRDMSHQTSVSGFPSFKREFYHIYKLKNILKIPILKKIIVAMSGKIGSKDVEQYMMNFKSIDEPREVQVLVGAALLVRRNVIDKIGMLDERYFMYYEEIDFCYQANKAGFKAVYYPNGEIIHYIGQAATKSRILEHHHHHH”, the “soluble on expression in E. coli” value is reported as “soluble”.
Turning to “MSLEWHFSLKEPHVLLFLPFEKYALPYPDPSQSWLSFGLTEIPVPEWTKNLEIITPWRPDFLKFANAQFRCSPEINQTCTHDGALLQLSKYRGFNQNCFLDLLERVKPGGWIIIGGNKTSGADSMMKWVKKIVPITNKFSKNHGLVFWIQVPQQIEKQNTAQLRSPPLTFENKFQTTSGMFSHGRIDPGSAVLASHMCKTISGKTADFGAGWGFLSHAALERSEKLTALDLYEADYNALKAAKQHLKHITTSLPIHFYWHDLVHEPITNLYDTIISNPPFHTQQTTDVSLGQHFIINAAKYLKPGGNLLLVANRHLPYETLLKRLFRTVLIYEKAHGFKVIEAYREGHHHHHH”, the “soluble on expression in E. coli” value is “soluble”.
Take “MKFTETSLKLNPLTEITFFLTFGAKTMSNQWNSGIHDRKLKEEICEIGRRVYNKGFAAANDGNISIRVGENEVLCSPTMICKGFMKPDDICAVDLDGNQIAGTRKRTSEILLHLAIMKERPDVKAVVHCHPPHATAFAVAREPIPQCVLPEVEVFMGEVPMAPYETPGGQKFADTVVPFLKGGTNTIILTGHGTVTFGKSLEDAYWKTEILDAYCNILLLSKQLGRVTYFTENETRELLDLKKKLGFDDPRFHVEDCDLCGNSAFRDGYKEGIPQQKSFEPAPSYPGYLSKPSTQATPATNNGDSDQLIKAITDQVMSALGK”: the “soluble on expression in E. coli” value is recorded as “not soluble”.
“MTSNKNVKTLDEAIRELTRAKAILDSARPTAVNLVWATSRMLTLAKNAVENGNAKTINELIDLMKVEAKRIFDEEYDAEIQMGLYGLEKLNDSDT”: the “soluble on expression in E. coli” value was “not soluble”.
As for “MGSDKIHHHHHHMAKIAYILLCHKDPDAIIMQAERLTAAGDYMSIHFDARARKADFARIRKALADNPNVTFARRRIKCGWGEWSLVQATLNAIEAAVDEFPRATHFYMLSGDCMAIKTAEYAHSFLDAQDKDYIESFDYFESDWIKTGWKEERLIYRHWFNERTQKRRFYAMFQAQKRLGLTREIPSDIQVMIGSQWWCLRRRTIEWILDFTRKRRDVMQFFATTWIPDETFFQTLVRHLIPEDEIDPRTLTFLMFSDYGMPVSFYNDHYDLLLSQDFLFARKISPEAKELKARLGRLYAAHGVQFQISNEGRNLYKFLTGRGRIGRRFSMRFWETESTLGRERELMILVCKKWHVAKRLLDQIRQVTNVPSIEYLFNEEGTPLPDLGGIQATLEKRTRHRRALMRMLFEYFDTDRLVICLDPTNLELMHDFFSDRSVTRMLEIECQFTDEYLIGHSYRVGLAGERTPKATLERLLPTIRNEMTYEADRIRDAGFARYGRIHQTSTPEENADKVAEFLSIPWDQALRITQTDHLFAD”, the entry is “not soluble”; as for “MKTAIVTDSASYLSAADVEKYHIHVVPITVIFGHQTYLENVEITSKEFYERMRTAPELPTTTQITLGQMQTTYDQLAKAGYDAVISIHLSSGITSFITNLESYLPNVTNIKVYPFDSLITAGGEAYMVLLAAKLVTEGYSPEQVIAQLKKIRETTGVYFVVDNLSHLVRTGRLSNASGLVGNLLRIKPVLTFQDGKIVAIQKERTMRRAYAAIKAKLAAEIAAVDYPLRVTIENGNNPKLQAEWTADLKASFPDLTIDEGEIGPVVGVHVGEGVMGLIWARDWEKWTI”, “not soluble”.
